In this assay the test system is non-obese diabetic mice (NOD/ShiLtJ) colonized with E. coli VT-55. The assay is classed as in vivo. Conditions: NOD mice gavaged with E. coli VT-55; regimen of each agent as in Table 3; positive control (no therapy) 16, negative controls 24 and 26.

Experimental findings from patent US11918610B2, “Methods for diagnosis and treatment of type 1 diabetes” (priority 2018, dated 2024) are described below.

Experimental: For this study non-obese diabetic mice (NOD/ShiLtJ) 8 weeks old (Jackson Laboratory, Bar Harbor, Me., USA) were housed and bred under specific pathogen-free conditions. Mice were maintained in a temperature controlled (22±2° C.) animal facility with a 12 hour light/dark cycle and were allowed free access to food and acidified drinking water. To increase the efficacy of E. coli transfer, all animals were exposed to antibiotic treatment before the transfer of E. coli. Starting at three weeks of age, recipient mice were treated with ampicillin (1 g/L) in the drinking water for the next 4 weeks. The bacterial strains used: E. coli strain VT-55—a wild-type, amyloid-producing strain. E. coli VT-55 bacteria were administered with oropharyngeal gavage to 8 week old female mice at 10^8 CFU, 2 times a week. Acceleration of T1D development was accessed by measuring blood glucose in a manner consistent with diabetes monitoring, using a FreeStyle Lite meter and test strips (Abbott). Blood glucose was evaluated weekly via a tail vein. T1D development was defined as occurring after two consecutive blood glucose measurements of at least 250 mg/dL.
TTR was expressed in E. coli VT-243. The TTR protein was precipitated from the supernatant of a 48 hour culture of E. coli VT-243 after centrifugation (12,000×g, 20 minutes 4° C.) of the lysed cells in the gradient 40-90% ammonium sulfate fraction (1.8-3.6 M). The precipitate that contained TTR was dialyzed overnight against 10 mM sodium phosphate buffer, pH 7.5, 100 mM KCl, 1 mM EDTA. The same volume of 200 mM sodium acetate buffer (pH 4.4, 100 mM KCl, 1 mM EDTA) was added to achieve a final pH of 4.5, and the mixture was then incubated for 18 hours at 37° C. Following centrifugation (45 min, 30,000×g, 4° C.), the supernatant was gel filtrated (Superdex 75) to elute phosphate buffer.
To develop nanoparticles with siRNA, we used cholesterol, distearoyl-sn-glycerol-3-phosphocholine (DSPC) and PEG2000-DMG (all Sigma). Nanoparticles were prepared by dissolving the 306013 lipidoid, cholesterol, DSPC, and PEG2000-DMG with final molar ratio of 50:38.5:10:1.5 in a 90% ethanol enriched with 10% 10 nM sodium citrate. Particles were formed following vortexing of equal volumes of siRNA solution with the lipid solution and subsequent dilution in PBS. Mice were orally gavaged with nanoparticles loaded with siRNA at a dose of 5 mg/kg.
The EcVac vaccine consisted of conjugates containing the 0-antigens of serotypes 06 of E. coli VT-55. […] The suspension for iv administration was made in TBS, (pH 7.4; 25 mmol Tris, 137 mmol NaCl, 2.8 mmol KCl).
Balb/c mice were immunized (10 μg) intraperitoneally and boosted (1 μg) subcutaneously with the E. coli amyloid isolated as previously described. Splenocytes were removed under sterile conditions, washed and hybridized to murine plasmacytoma parent cell line SP2/OAg14 using 40% polyethylene glycol and a spleen cell to plasmacytoma cell ratio of 5:1. Cells were plated in 96-well microtiter (Sarstedt) plates at 100,000 cells/per well with DMEM supplemented with 10% fetal bovine serum. Following 48h, cells were supplemented with hypoxanthine (100 PM) containing medium. After three washes with PBS-1% BSA, the presence of specific antibody binding was detected by ELISA. Serotype specific wells were cloned. Pristine-primed BALB/c mice were IP injected with 1×10^7 hybridoma cells. Ascites fluid was collected 14 days later, centrifuged (5000 g, 20 min, Eppendorf) and stored at −80° C. before use.

B1: T7 Endonuclease I: T7 Endonuclease I (New England Biolabs) (protein, UniProt P00641 1-149, looked up)
Endonuclease I: MAGYGAKGIRKVGAFRSGLEDKVSKQLESKGIKFEYEEWKVPYVIPASNHTYTPDFLLPNGIFVETKGLWESDDRKKHLLIREQHPELDIRIVFSSSRTKLYKGSPTSYGEFCEKHGIKFADKLIPAEWIKEPKKEVPFDRLKRKGGKK
B1: the “Median T1D incidence 50% (weeks)” value came to 22 weeks.
